We go through 2 molecules from patent US20250026861A1 (INVENRA, published 2025).

One assay deals with T1, CD3.
T1 chain: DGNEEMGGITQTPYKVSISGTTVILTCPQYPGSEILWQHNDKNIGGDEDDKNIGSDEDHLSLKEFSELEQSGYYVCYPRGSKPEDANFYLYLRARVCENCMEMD
The experiment in a line: BLI (Octet), two-fold serial dilution (200-12.5 nM) of the construct.

A further assay addresses T2, CTLA4 (UniProt P16410 36-161, limits assumed).
T2 construct: Immobilized antigen in the Octet assays
The assay can be described thus: Octet biolayer interferometry; antigen immobilized, B-Body as analyte. An excerpt:
In each instance, the antigen is immobilized and the B-Body is the analyte.
In general terms: In BLI a coated tip is dipped into the sample, and binding shifts an interference pattern.

T2 sequence (P16410 36-161 limits assumed): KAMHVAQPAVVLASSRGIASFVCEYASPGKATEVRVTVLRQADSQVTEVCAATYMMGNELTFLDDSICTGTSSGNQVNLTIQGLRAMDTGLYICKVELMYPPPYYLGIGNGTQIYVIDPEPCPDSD

B1: non-mutagenized SP34-89 monovalent B-Body (bispecific antibody, V domains shown)
VH: EVQLVESGGGLVQPGGSLRLSCAASGFTFNTYAMNWVRQAPGKGLEWVARIRSKYNNYATYYADSVKGRFSISRDDSKNTAYLQMNSLRAEDTAVYYCVRHGNFGNSYVSWFAYWGQGTLVTV
VL: QAVVTQEPSLTVSPGGTVTLTCRSSTGAVTTSNYANWVQQKPGQAPRGLIGGTNKRAPWTPARFSGSLLGGKAALTITGAQAEDEADYYCALWYSNLWVFGGGTKLTVL
notes: VL and VH cloned into one arm of a 1×1 BC1 B-Body; also called SP34-89 VL-WT/SP34-89 VH-WT
Usually Kd stands for the concentration at which binding is half-saturated. Read a low Kd as higher affinity. A word on the koff: it is a measure of how fast the partners let go of each other. Low values mean slow dissociation, high ones fast dissociation. The kon is the rate constant with which the complex forms. In the assay with CD3, B1 showed a Kd of 23 nM, a koff of 0.0071 s⁻¹ and a kon of 300000 M⁻¹ s⁻¹.

B2: bivalent bispecific B-Body “BC1” (bispecific antibody)
chain 1: not shown
chain 2: EVQLVESGGGLVQPGGSLRLSCAASGFTFSDYDIHWVRQAPGKGLEWVGDITPYDGTTNYADSVKGRFTISADTSKNTAYLQMNSLRAEDTAVYYCARLVGEIATGFDYWGQGTLVTVSSASPREPQVYTDPPSRDELTKNQVSLTCLVKGFYPSDIAVEWESNGQPENNYKTTPPVLDSDGSFFLYSKLTVDKSRWQQGNVFSCSVMHEALHNHYTQKSLSLSGEC
chain 3: not shown
chain 4: QVQLVESGGGVVQPGRSLRLDCKASGITFSNSGMHWVRQAPGKGLEWVAVIWYDGSKRYYADSVKGRFTISRDNSKNTLFLQMNSLRAEDTAVYYCATNDDYWGQGTLVTVSSASTKGPSVFPLAPSSKSTSGGTAALGCLVKDYFPEPVTVSWNSGALTSGVHTFPAVLQSSGLYSLSSVVTVPSSSLGTQTYICNVNHKPSNTKVDKKVEPPKSC
Consider B2, for which, in the assay with CTLA4, the binding result is given as “no binding”.
